Measured values from US20260167710A1 (GlaxoSmithKline, published 2026).

How the values were obtained:
[1] = molecular target: T1, human IL-33 (human, Biotinylated in Example 2; the site is not stated.); test: cell-based or functional assay
T1 chain: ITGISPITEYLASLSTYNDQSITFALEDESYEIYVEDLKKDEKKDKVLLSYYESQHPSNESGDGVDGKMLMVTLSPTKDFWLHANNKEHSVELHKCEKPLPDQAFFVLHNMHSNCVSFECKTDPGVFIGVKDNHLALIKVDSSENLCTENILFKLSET

[2] = molecular target: T1, human IL-33; test: cell-based or functional assay
[3] = molecular target: T1, human IL-33; test: cell-based or functional assay
[4] = molecular target: T2, human IL-1a (human, UniProt P01583 113-271); test: BLI (Octet RED384), antibody on protein A sensors, single shot
T2 construct: also called IL-1a (R&D Systems #200-LA)
T2 sequence (looked up): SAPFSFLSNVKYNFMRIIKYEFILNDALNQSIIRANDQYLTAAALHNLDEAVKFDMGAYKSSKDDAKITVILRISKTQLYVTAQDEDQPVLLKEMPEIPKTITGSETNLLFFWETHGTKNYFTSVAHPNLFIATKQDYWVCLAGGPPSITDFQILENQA

[5] = molecular target: T3, human IL-1b (human, UniProt P01584 117-269); test: as above
T3 construct: also called IL-1b (R&D Systems #201-LB)

[6] = molecular target: T1, human IL-33; test: MSD-SET solution equilibrium titration, 25 C
[7] = molecular target: T4, hFcgRIIIa (F158) (human, UniProt P08637 17-208); test: SPR (ProteOn XPR36), anti-poly-histidine IgG surface, antibody as analyte, equilibrium fit, 25 C
T4 construct: extracellular domain

[8] = molecular target: T5, hFcgRI (human, UniProt P12314 16-292); test: as above
T5 construct: extracellular domain; the chip carried an anti-poly-histidine IgG; also called recombinant soluble human Fc gamma receptor I

[9] = molecular target: T6, hFcgRIIIa (V158) (human, UniProt P08637 17-208); test: as above
T6 construct: extracellular domain

[10] = molecular target: T7, hFcgRIIb (human, UniProt P31994 43-217); test: as above
T7 construct: extracellular domain
T7 sequence (looked up): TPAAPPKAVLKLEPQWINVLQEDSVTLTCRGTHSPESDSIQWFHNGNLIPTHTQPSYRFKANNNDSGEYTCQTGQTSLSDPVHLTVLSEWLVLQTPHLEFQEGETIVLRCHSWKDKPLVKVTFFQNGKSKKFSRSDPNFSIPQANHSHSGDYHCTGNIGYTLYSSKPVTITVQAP

[11] = molecular target: T8, hFcgRIIa (H131) (human, UniProt P12318 34-217); test: as above
T8 construct: extracellular domain; His at position 131 (mature numbering as commonly used)
T8 sequence (looked up): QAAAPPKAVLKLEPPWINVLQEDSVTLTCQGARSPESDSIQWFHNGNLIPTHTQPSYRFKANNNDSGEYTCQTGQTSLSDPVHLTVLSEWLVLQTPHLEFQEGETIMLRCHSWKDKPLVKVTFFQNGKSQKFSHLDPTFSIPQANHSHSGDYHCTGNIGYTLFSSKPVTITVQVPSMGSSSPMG

[12] = molecular target: T9, hFcgRIIa (R131) (human, UniProt P12318 34-217); test: as above
T9 construct: extracellular domain
T9 sequence (looked up): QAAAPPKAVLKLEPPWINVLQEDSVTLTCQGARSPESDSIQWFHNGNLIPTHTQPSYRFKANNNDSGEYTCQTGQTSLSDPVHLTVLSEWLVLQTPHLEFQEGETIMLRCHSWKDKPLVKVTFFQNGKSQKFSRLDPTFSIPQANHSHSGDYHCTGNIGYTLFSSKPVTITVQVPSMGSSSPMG

[13] = molecular target: T1, human IL-33; test: cell-based or functional assay

T4 sequence (P08637 17-208): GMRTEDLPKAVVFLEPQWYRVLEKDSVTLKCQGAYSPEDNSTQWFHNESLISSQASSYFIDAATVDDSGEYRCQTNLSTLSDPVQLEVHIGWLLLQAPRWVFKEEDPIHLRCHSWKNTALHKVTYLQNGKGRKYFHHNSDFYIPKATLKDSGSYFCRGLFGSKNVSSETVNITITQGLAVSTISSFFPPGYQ
T6 sequence (P08637 17-208 F176V): as the sequence (P08637 17-208) above, with F160V counted along it
T5 sequence (P12314 16-292): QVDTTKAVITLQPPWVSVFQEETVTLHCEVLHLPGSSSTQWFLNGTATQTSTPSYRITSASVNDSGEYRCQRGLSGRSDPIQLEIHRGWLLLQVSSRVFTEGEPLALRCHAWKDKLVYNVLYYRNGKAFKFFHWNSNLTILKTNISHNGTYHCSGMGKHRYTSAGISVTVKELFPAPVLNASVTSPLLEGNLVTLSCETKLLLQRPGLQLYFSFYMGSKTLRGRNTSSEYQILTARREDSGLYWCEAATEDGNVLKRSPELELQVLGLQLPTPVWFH

B1: 22A06-458 (antibody, human IgG1, kappa)
heavy: QVQLVQSGAEVKKPGASVKVSCKASGYTFISYGMHWVRQAPGQGLEWMGEINPHGGSTSYAQKFKGRVTMTRDTSTSTVYMELSSLRSEDTAVYYCARPSAAYSHYLGIDLWGRGTLVTVSSASTKGPSVFPLAPSSKSTSGGTAALGCLVKDYFPEPVTVSWNSGALTSGVHTFPAVLQSSGLYSLSSVVTVPSSSLGTQTYICNVNHKPSNTKVDKKVEPKSCDKTHTCPPCPAPELLGGPSVFLFPPKPKDTLYITREPEVTCVVVDVSHEDPEVKFNWYVDGVEVHNAKTKPREEQYNSTYRVVSVLTVLHQDWLNGKEYKCKVSNKALPAPIEKTISKAKGQPREPQVYTLPPSRDELTKNQVSLTCLVKGFYPSDIAVEWESNGQPENNYKTTPPVLDSDGSFFLYSKLTVDKSRWQQGNVFSCSVMHEALHNHYTQKSLSLSPGK
light: DIQMTQSPSSVSASVGDRVTITCRASQGISSWLAWYQQKPGKAPKLLIYAASRLQSGVPSRFSGSGSGTDFTLTISSLQPEDFATYYCQQANVFPLTFGGGTKVEIKRTVAAPSVFIFPPSDEQLKSGTASVVCLLNNFYPREAKVQWKVDNALQSGNSQESVTEQDSKDSTYSLSSTLTLSKADYEKHKVYACEVTHQGLSSPVTKSFNRGEC
IC50, inhibition of IL-33 (500 pM) induced IL-6 secretion from HUVECs, pre-complexed, Mean [1]: 217 pM
IC50, inhibition of IL-33 (500 pM) induced IL-6 secretion from HUVECs, pre-complexed, P7 [1]: 214 pM
IC50, inhibition of IL-33 (500 pM) induced IL-6 secretion from HUVECs, pre-complexed, P8 [1]: 204 pM
IC50, inhibition of IL-33 (500 pM) induced IL-6 secretion from HUVECs, pre-complexed, P9 [1]: 234 pM
IC50, inhibition of IL-33 (500 pM) induced IL-8 secretion from HUVECs, pre-complexed, Mean [1]: 390 pM
IC50, inhibition of IL-33 (500 pM) induced IL-8 secretion from HUVECs, pre-complexed, P7 [1]: 489 pM
IC50, inhibition of IL-33 (500 pM) induced IL-8 secretion from HUVECs, pre-complexed, P8 [1]: 278 pM
IC50, inhibition of IL-33 (500 pM) induced IL-8 secretion from HUVECs, pre-complexed, P9 [1]: 402 pM
pIC50, inhibition of IL-33 (500 pM) induced IL-6 secretion from HUVECs, pre-complexed, Mean [1]: 9.66
pIC50, inhibition of IL-33 (500 pM) induced IL-6 secretion from HUVECs, pre-complexed, P7 [1]: 9.67
pIC50, inhibition of IL-33 (500 pM) induced IL-6 secretion from HUVECs, pre-complexed, P8 [1]: 9.69
pIC50, inhibition of IL-33 (500 pM) induced IL-6 secretion from HUVECs, pre-complexed, P9 [1]: 9.63
pIC50, inhibition of IL-33 (500 pM) induced IL-8 secretion from HUVECs, pre-complexed, Mean [1]: 9.42
pIC50, inhibition of IL-33 (500 pM) induced IL-8 secretion from HUVECs, pre-complexed, P7 [1]: 9.31
pIC50, inhibition of IL-33 (500 pM) induced IL-8 secretion from HUVECs, pre-complexed, P8 [1]: 9.56
pIC50, inhibition of IL-33 (500 pM) induced IL-8 secretion from HUVECs, pre-complexed, P9 [1]: 9.4
IC50, inhibition of 10 ng/mL human IL-33 induced IL-6 production, mouse bone marrow-derived mast cells [2]: ~0.566 nM
IC50, inhibition of 10 ng/mL human IL-33 induced IL-13 production, mouse bone marrow-derived mast cells [2]: ~0.567 nM
IC50, inhibition of 10 ng/mL human IL-33 induced IL-18 production, mouse bone marrow-derived mast cells [2]: ~0.631 nM
IC50, inhibition of 10 ng/mL human IL-33 induced TNF-α production, mouse bone marrow-derived mast cells [2]: ~0.581 nM
pIC50, inhibition of 10 ng/mL human IL-33 induced IL-6 production, mouse bone marrow-derived mast cells [2]: ~9.25
pIC50, inhibition of 10 ng/mL human IL-33 induced IL-13 production, mouse bone marrow-derived mast cells [2]: ~9.25
pIC50, inhibition of 10 ng/mL human IL-33 induced IL-18 production, mouse bone marrow-derived mast cells [2]: ~9.2
pIC50, inhibition of 10 ng/mL human IL-33 induced TNF-α production, mouse bone marrow-derived mast cells [2]: ~9.24
IC50, inhibition of 10 ng/mL IL-33/IL-12 induced IFN-γ secretion from whole blood, pre-complexed, Mean [3]: 1.95 nM
IC50, inhibition of 10 ng/mL IL-33/IL-12 induced IFN-γ secretion from whole blood, pre-complexed, donor #91232 [3]: 0.63 nM
IC50, inhibition of 10 ng/mL IL-33/IL-12 induced IFN-γ secretion from whole blood, pre-complexed, donor #91845 [3]: 2.72 nM
IC50, inhibition of 10 ng/mL IL-33/IL-12 induced IFN-γ secretion from whole blood, pre-complexed, donor #92023 [3]: 1.88 nM
IC50, inhibition of 10 ng/mL IL-33/IL-12 induced IFN-γ secretion from whole blood, pre-complexed, donor #92257 [3]: 0.81 nM
IC50, inhibition of 10 ng/mL IL-33/IL-12 induced IFN-γ secretion from whole blood, pre-complexed, donor #92258 [3]: 3.72 nM
pIC50, inhibition of 10 ng/mL IL-33/IL-12 induced IFN-γ secretion from whole blood, pre-complexed, Mean [3]: 8.8
pIC50, inhibition of 10 ng/mL IL-33/IL-12 induced IFN-γ secretion from whole blood, pre-complexed, donor #91232 [3]: 9.19
pIC50, inhibition of 10 ng/mL IL-33/IL-12 induced IFN-γ secretion from whole blood, pre-complexed, donor #91845 [3]: 8.56
pIC50, inhibition of 10 ng/mL IL-33/IL-12 induced IFN-γ secretion from whole blood, pre-complexed, donor #92023 [3]: 8.72
pIC50, inhibition of 10 ng/mL IL-33/IL-12 induced IFN-γ secretion from whole blood, pre-complexed, donor #92257 [3]: 9.08
pIC50, inhibition of 10 ng/mL IL-33/IL-12 induced IFN-γ secretion from whole blood, pre-complexed, donor #92258 [3]: 8.42
binding result [4]: no binding (tested: 100 nM)
binding result [5]: no binding (tested: 100 nM)
Kd [6]: 0.0033 nM
Kd [7]: 987 nM
Kd [8]: 24.3 nM
Kd [9]: 215 nM
Kd [10]: 5220 nM
Kd [11]: 574 nM
Kd [12]: 502 nM
IC50, inhibition of 10 ng/mL IL-33 induced IFN-γ secretion from whole blood, non-pre-complexed, Mean [13]: 0.37 nM
IC50, inhibition of 10 ng/mL IL-33 induced IFN-γ secretion from whole blood, non-pre-complexed, donor #32871 [13]: 0.21 nM
IC50, inhibition of 10 ng/mL IL-33 induced IFN-γ secretion from whole blood, non-pre-complexed, donor #90237 [13]: 0.73 nM
IC50, inhibition of 10 ng/mL IL-33 induced IFN-γ secretion from whole blood, non-pre-complexed, donor #91680 [13]: 0.43 nM
IC50, inhibition of 10 ng/mL IL-33 induced IFN-γ secretion from whole blood, non-pre-complexed, donor #91955 [13]: 0.08 nM
IC50, inhibition of 10 ng/mL IL-33 induced IFN-γ secretion from whole blood, non-pre-complexed, donor #91986 [13]: 0.36 nM
IC50, inhibition of 10 ng/mL IL-33 induced IFN-γ secretion from whole blood, non-pre-complexed, donor #92251 [13]: 0.42 nM
pIC50, inhibition of 10 ng/mL IL-33 induced IFN-γ secretion from whole blood, non-pre-complexed, Mean [13]: 9.51
pIC50, inhibition of 10 ng/mL IL-33 induced IFN-γ secretion from whole blood, non-pre-complexed, donor #32871 [13]: 9.67
pIC50, inhibition of 10 ng/mL IL-33 induced IFN-γ secretion from whole blood, non-pre-complexed, donor #90237 [13]: 9.13
pIC50, inhibition of 10 ng/mL IL-33 induced IFN-γ secretion from whole blood, non-pre-complexed, donor #91680 [13]: 9.37
pIC50, inhibition of 10 ng/mL IL-33 induced IFN-γ secretion from whole blood, non-pre-complexed, donor #91955 [13]: 10.1
pIC50, inhibition of 10 ng/mL IL-33 induced IFN-γ secretion from whole blood, non-pre-complexed, donor #91986 [13]: 9.44
pIC50, inhibition of 10 ng/mL IL-33 induced IFN-γ secretion from whole blood, non-pre-complexed, donor #92251 [13]: 9.37
